Legend:
Details in all cases: ELISA: 20 mM Tris-HCl pH 7.5, 100 mM NaCl, room temperature, 1 h (washes with 0.02% Tween-20); SPR conditions not in the material
[1] = system: BV04-01 scFv (SCA04-01) (mouse (lupus-prone)); assay: SPR
[2] = system: BV04-01 scFv VH A23P (mouse (lupus-prone)); assay: SPR
MRL-4 scFv (mouse) [3] = assay: SPR
[4] = system: MRL-4 scFv VH P23A (mouse); assay: SPR
[5] = system: BV04-01 scFv (SCA04-01) (mouse (lupus-prone)); assay: ELISA
[6] = system: BV04-01 scFv VH A23P (mouse (lupus-prone)); assay: ELISA
MRL-4 scFv (mouse) [7] = assay: ELISA
[8] = system: MRL-4 scFv VH P23A (mouse); assay: ELISA

| Substance | Kd [1] [nM] | Kd [2] [nM] | Kd (MRL-4 scFv (mouse) [3]) [nM] | Kd [4] [nM] | binding signal [5] [%] | binding signal (% of BV04-01 wild type) [6] | binding signal (MRL-4 scFv (mouse) [7]) [%] | binding signal (% of MRL-4 wild type) [8] |
| --- | --- | --- | --- | --- | --- | --- | --- | --- |
| double-stranded DNA fragments (SPR ligand) | 1.8 | 290 | 17 | 8500 |  |  |  |  |
| 254-bp PCR fragment (ELISA) |  |  |  |  | 100 | 1.2 | 100 | 4.6 |
